What is called stoichiometry N is the number of molecules, sites or subunits per partner or assembly.

The target of data set [1] is OmpF (endogenous, co-extracted with FepA^BPA) (E. coli (endogenous in BW25113)) (UniProt P02931). The data set is described as follows: native MS; FepA^BPA preparations with co-extracted porins, 5 μM in 1% β-OG, 0.2 M ammonium acetate pH 6.9; make-up of the porin trimers.
The target in data set [2] is OmpF V177^BPA cross-linked to LPS (anion exchange peak 2) (E. coli) (UniProt P02931). The data set is described as follows: native MS; purified OmpF samples, 5 μM in 1% β-OG, 0.2 M ammonium acetate pH 6.9; the OmpF trimer itself.
Data set [3] has as its target OmpF V177^BPA cross-linked to phospholipid (anion exchange peak 1) (E. coli) (UniProt P02931). The description is as above.
The target in data set [4] is OmpF, wild type, purified (E. coli) (UniProt P02931). The data set is described as above.
Data set [5] concerns the molecule itself. The data set is described as follows: native MS; FepA^BPA preparations with co-extracted porins, 5 μM in 1% β-OG, 0.2 M ammonium acetate pH 6.9; make-up of the porin trimers.
Data set [6] concerns the target T1, OmpF (endogenous, co-extracted with FepA^BPA) (E. coli (endogenous in BW25113), UniProt P02931 23-362).
T1 construct: OmpF, 16-stranded β barrel porin of E. coli; Found as homotrimers and as heterotrimers with OmpC; also called OmpF/C; porins; source: endogenous, outer membrane of E. coli BW25113 ΔfepA
T1 sequence (looked up): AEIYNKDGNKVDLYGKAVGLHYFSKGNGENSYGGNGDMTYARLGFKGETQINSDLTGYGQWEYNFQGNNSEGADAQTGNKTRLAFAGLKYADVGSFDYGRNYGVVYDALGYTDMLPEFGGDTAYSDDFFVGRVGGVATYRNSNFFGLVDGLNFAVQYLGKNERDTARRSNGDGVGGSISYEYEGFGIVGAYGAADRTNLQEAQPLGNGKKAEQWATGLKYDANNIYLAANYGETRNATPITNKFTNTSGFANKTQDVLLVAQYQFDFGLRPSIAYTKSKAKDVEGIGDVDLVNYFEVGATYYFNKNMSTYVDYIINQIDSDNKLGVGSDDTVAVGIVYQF
The data set is described as above. Particulars: partners not purified.

In data set [1], “OmpF (endogenous, co-extracted with FepA^BPA) (from UniProt P02931 23-362) (natural protein)” gave a stoichiometry N of 3.
With “OmpF V177^BPA cross-linked to LPS (anion exchange peak 2) (from UniProt P02931 23-362) (natural protein)”, in data set [2], the stoichiometry N is 3.
The molecule “OmpF V177^BPA cross-linked to phospholipid (anion exchange peak 1) (from UniProt P02931 23-362) (natural protein)” had a stoichiometry N in data set [3] of 3.
The molecule “OmpF, wild type, purified (from UniProt P02931 23-362) (natural protein)” gave a stoichiometry N in data set [4] of 3.

B1: OmpC (endogenous, co-extracted with FepA^BPA) (natural protein, E. coli (endogenous in BW25113), UniProt P06996 22-367, looked up)
chain: AEVYNKDGNKLDLYGKVDGLHYFSDNKDVDGDQTYMRLGFKGETQVTDQLTGYGQWEYQIQGNSAENENNSWTRVAFAGLKFQDVGSFDYGRNYGVVYDVTSWTDVLPEFGGDTYGSDNFMQQRGNGFATYRNTDFFGLVDGLNFAVQYQGKNGNPSGEGFTSGVTNNGRDALRQNGDGVGGSITYDYEGFGIGGAISSSKRTDAQNTAAYIGNGDRAETYTGGLKYDANNIYLAAQYTQTYNATRVGSLGWANKAQNFEAVAQYQFDFGLRPSLAYLQSKGKNLGRGYDDEDILKYVDVGATYYFNKNMSTYVDYKINLLDDNQFTRDAGINTDNIVALGLVYQF
notes: OmpC, porin, structural homolog of OmpF, E. coli; Found as homotrimers and as heterotrimers with OmpF; also called OmpF/C; porins; source: endogenous, outer membrane of E. coli BW25113 ΔfepA
As for B1, the “stoichiometry N” value in data set [5] and in data set [6] was 3 throughout.

The values above are taken from paper PMC9629720, “Lipids mediate supramolecular outer membrane protein assembly in bacteria” (Science Advances, 2022).
